# In patent publication US20210113652A1, “MASPIN-BASED INHIBITION OF OSTEOCLAST ACTIVITY AND PROMOTION OF BONE FORMATION” (Northwestern University, priority 2016, published 2021):
# B1: Maspin: Maspin (mammary serine protease inhibitor), a serpin protein encoded by the SERPINB5 gene; human wild-type is SEQ ID NO: 1 (protein, listed as Homo sapiens)
# chain: MDALQLANSAFAVDLFKQLCEKEPLGNVLFSPICLSTSLSLAQVGAKGDTANEIGQVLHFENVKDIPFGFQTVTSDVNKLSSFYSLKLIKRLYVDKSLNLSTEFISSTKRPYAKELETVDFKDKLEETKGQINNSIKDLTDGHFENILADNSVNDQTKILVVNAAYFVGKWMKKFPESETKECPFRLNKTDTKPVQMMNMEATFCMGNIDSINCKIIELPFQNKHLSMFILLPKDVEDESTGLEKIEKQLNSESLSQWTNPSTMANAKVKLSIPKFKVEKMIDPKACLENLGLKHIFSEDTSDFSGMSETKGVALSNVIHKVCLEITEDGGDSIEVPGARILQHKDELNADHPFIYIIRHNKTRNIIFFGKFCSP
# What was measured:
# [1] = system: mouse tibiae inoculated with mammary tumor cells TM40D or maspin-expressing TM40D-Mp; assay: Osteolytic bone degradation in tumor-inoculated BALB/c mice (X-ray, H&E, TRAP staining of tibiae); assay type: in vivo
# From the text: FIG. 1. […] Panel A-B: Representative X-ray radiographs of mouse tibiae inoculated with mammary tumor cells TM40D (Panel A) or maspin-expressing TM40D-Mp tumor cells (Panel B), at the end point of 4 weeks following tumor inoculation. Note that mice inoculated with TM40D tumors display severe osteolytic lesion comparing to that with TM40D-Mp cells. Panel E: Summary of osteolytic lesion data (radiography analysis) in 20 mice (10 mice/group) at 2-week and 4-week time points. Panel C: Histological analysis of bone section of tumor-inoculated tibiae by H&E staining. Arrow heads indicate osteoclastic cells. Panel D: TRAP (tartrate-resistant acid phosphatase) staining of osteoclastic cells in bone sections. Arrows indicate osteoclastic cells. Panel F: Summary of TRAP staining data of osteoclasts in mouse tibiae inoculated with TM40D or TM40D-Mp cells.
# [2] = system: primary bone marrow cells; assay: Osteoclastogenesis in mouse primary bone marrow co-culture assay (TRAP staining); assay type: cell-based; details: bone marrow cells co-cultured with TM40D-Mp vs TM40D cells; TRAP-positive cells with 2 or more nuclei
# From the text: FIG. 2. […] Osteoclastogenesis analyses of primary bone marrow cells co-cultured with breast cancer cells with or without maspin expression. (Panel A) Newly isolated primary bone marrow cells only (control). (Panel B) Bone marrow cells co-cultured with mammary tumor TM40D cells. (Panel C) Bone marrow cells co-cultured with maspin-expressing TM40D-Mp cells. (Panel D) Bone marrow cells co-cultured with TM40D-Mp cells and rabbit anti-maspin antibody. (Panel E) Bone marrow cells co-cultured with TM40D-Mp cells and rabbit IgG. (F) Summary of percentage of osteoclasts in co-cultured cells analyzed by TRAP staining. TRAP-positive cells containing 2 or more nuclei are defined as osteoclasts.
# RAW246.7 cells = assay: Differentiation assay of pre-osteoclastic RAW246.7 cells under RANKL (TRAP staining); assay type: cell-based; details: maspin 0.1-10 ug/ml; RANKL 50-100 ng/ml; 8 days
# Procedure: FIG. 3. […] RAW246.7 cells were treated with RANKL (50 -100 ng/ml) and different doses of maspin for 8 days, and cell cultures were used for TRAP staining.
# [3] = system: mature osteoclasts from RAW246.7; assay: Osteoclast actin ring formation (phalloidin staining); assay type: cell-based; details: RANKL 50 ng/ml pre-culture 8 days; 2 hours at 37° C.
# Procedure: FIG. 6. Panels A-C: Maspin inhibits osteoclast actin ring formation. Osteoclasts display osteolytic activity by forming actin rings. RAW246.7 were pre-cultured with RANKL (50 ng/ml) for 8 days to form mature osteoclasts. Cells were first washed with cold PBS twice to disrupt actin rings, warm medium with RANKL were added to cell culture with or without Gst or GST-maspin and cells were then cultured for 2 hours at 37° C. Cells were then washed and stained with phalloidin for actin ring formation. Cells with strong and clear actin ring belts were counted as positive. Five fields of cell staining were counted for each sample and experiments repeated three times. The percentage of cells forming strong and clear actin rings was calculated.
# calvariae = assay: New bone formation in ex vivo calvariae organ culture model; set-up: species or system BABL/c new-born mice; details: 7 days organ culture
# From the text: FIG. 7. […] Panel A, calvariae were removed from 4 days-old BABL/c new-born mice and cultured in an ex vivo organ culture medium. They were either treated with or without concentrated conditional medium from mouse mammary tumor TM40D cells or maspin-expressing TM40D-Mp cells or with recombinant maspin (GST-Mp) with or without an anti-maspin antibody for 7 days. H&E staining of representative images were shown. Arrows indicate osteoblast cells. Arrowhead indicates new bone area. Panel B, quantitation of the average number of osteoblasts under different treatments listed in Panel A.
# [4] = Long-term treatment with maspin in animals; assay type: in vivo
# From the text: Because bone is tissue under constant balancing actions between bone-degrading osteoclasts and bone-forming osteoblasts, inhibiting the formation and activity of osteoclasts will favor or promote osteoblastic activity, thereby promoting new bone formation and bone wound healing. Further, maspin is naturally produced by osteoblasts in the bone microenvironment. This represents a previously unappreciated and unexploited mechanism for osteoblast-produced maspin counteracting the effect of osteclastic activity. […] Therefore, maspin may be delivered to human patients as a non-toxic therapeutic product against various bone diseases.
# [5] = overexpression of maspin in vivo; cited from earlier work
molecule,measurement,setting,value
B1,osteoclast numbers (TRAP staining) in mouse tibiae,[1]; TM40D-Mp vs TM40D tumor cells,significantly decreased osteoclast numbers
same,osteolytic bone degradation (radiography),"[1]; tibiae inoculated with TM40D-Mp vs TM40D tumor cells, 2-week and 4-week time points",inhibits osteolytic bone degradation
same,osteoclast formation,[2],inhibits osteoclast formation
same,osteoclast formation under RANKL stimulation,RAW246.7 cells,completely inhibits osteoclast formation
same,percentage of cells forming strong and clear actin rings,[3],53%
same,new bone formation,calvariae,promotes new bone formation
same,side effects,[4],no side effects
same,toxic side effects,[5],does not have any observable toxic side effects
